These are literature values, as cited in paper PMC4023866.

The target in this data set is GAPDH (Homo sapiens) (UniProt P04406).

A word on the Kd: it is the constant that tells how readily two partners part at equilibrium. On to NleB (from UniProt B7UI21), for which the dissociation constant (Kd) is 36 µM.
